The results in this text go back to article PMC5973781.

For the assay, the target named is mouse ANKRD16^3xArg (recombinant) (mouse) (UniProt A2AS55). The experiment in a line: SwitchSENSE.

With “mouse AlaRS^A734E (recombinant, SwitchSENSE and biochemical assays) (from UniProt Q8BGQ7 1-968) (enzyme)”, the fold change in affinity against wild type ANKRD16 was 2 fold.
